Each compound was assayed against T1, elastase (type I: derived from porcine pancreas) (Sus scrofa, UniProt P00772) (assay: Elastase inhibition test (p-nitroanilide release, absorbance 410 nm)). Conditions: peptides and controls 100 μg/mL; N-succinyl-(L-Ala) 3-p-nitroanilide substrate, 37 °C, 30 minutes.
T1 construct: type I: derived from porcine pancreas; purchased Sigma Aldrich, USA; host or cells: porcine pancreas (tissue-derived)
Assay type: biochemical
Protocol: In order to confirm the anti-wrinkle effect of tetrapeptides, a test of inhibiting elastase was performed. The amount of p-nitroanilide produced was measured using N-succinyl-(L-Aal) 3-p-nitroanilide as a substrate at 37 °C for 30 minutes. After adding each of the peptides to be tested and negative and positive controls in an amount of 100 μg/mL into test tube, respectively, a pancreatic solution (type I: derived from porcine pancreas, 0.6 unit/mL, Sigma Aldrich, USA) in an amount of […] was added thereto. Thereafter, a substrate, in which N-succinyl-(L-Ala) 3-p-nitroanilide (1 mg/mL) was dissolved in 50 mM Tris-HCl buffer (pH 8.6), was added in an amount of […] thereto and allowed to react for 30 minutes and the absorbance was measured at 410 nm using a microplate reader. The elastase inhibitory activity was expressed as a decrease rate in absorbance of the groups with and without the addition of the sample solution as shown in Equation 1 below.
After treating the 42 kinds of synthesized peptides, their effects on inhibition of elastase were measured.

T1 sequence (P00772 27-266): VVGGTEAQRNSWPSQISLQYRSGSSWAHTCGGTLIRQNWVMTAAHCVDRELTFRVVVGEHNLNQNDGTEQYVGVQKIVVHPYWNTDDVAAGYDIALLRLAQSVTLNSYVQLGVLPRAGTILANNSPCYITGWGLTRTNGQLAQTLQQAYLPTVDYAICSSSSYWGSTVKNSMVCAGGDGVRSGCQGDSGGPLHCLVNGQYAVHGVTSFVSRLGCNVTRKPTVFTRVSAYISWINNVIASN

Row | Compound | Elastase Inhibition Rate(%)
1 | C[C@H]1[C@H](C)CC[C@]2(C(=O)O)CC[C@]3(C)C(=CC[C@@H]4[C@@]5(C)CCC(=O)C(C)(C)[C@@H]5CC[C@]43C)[C@H]12 [Ursonic acid, reference compound] | 28.8%
2 | CAPQ (Tetra Peptide) [Sample 14, tetrapeptide] | 77.2%
3 | CFSS (Tetra Peptide) [Sample 21, tetrapeptide] | 47.4%
4 | DCVK (Tetra Peptide) [Sample 5, tetrapeptide] | 118.4%
5 | EGQL (Tetra Peptide) [Sample 30, tetrapeptide] | 69.7%
6 | EHQE (Tetra Peptide) [Sample 29, tetrapeptide] | 66.3%
7 | ELPE (Tetra Peptide) [Sample 24, tetrapeptide] | 90.5%
8 | EQQE [25] (Tetra Peptide) [Sample 25, tetrapeptide] | 53.6%
9 | EQQE [37] (Tetra Peptide) [Sample 37, tetrapeptide] | 64.2%
10 | EVQW (Tetra Peptide) [Sample 42, tetrapeptide] | 49.5%
11 | FSSG (Tetra Peptide) [Sample 22, tetrapeptide] | 69.1%
12 | GCFS (Tetra Peptide) [Sample 20, tetrapeptide] | 55.2%
13 | GGSG [Sample 18] | 103.5%
14 | GQDP (Tetra Peptide) [Sample 34, tetrapeptide] | 34.5%
15 | GQLE (Tetra Peptide) [Sample 23, tetrapeptide] | 73.2%
16 | GQLK (Tetra Peptide) [Sample 27, tetrapeptide] | 56.0%
17 | GQVS (Tetra Peptide) [Sample 10, tetrapeptide] | 33.9%
18 | GSGY (Tetra Peptide) [Sample 9, tetrapeptide] | 56.3%
19 | GSSG (Tetra Peptide) [Sample 19, tetrapeptide] | 58.3%
20 | GYVS (Tetra Peptide) [Sample 11, tetrapeptide] | 78.5%
21 | KHLE (Tetra Peptide) [Sample 28, tetrapeptide] | 79.3%
22 | KTSG (Tetra Peptide) [Sample 7, tetrapeptide] | 44.5%

Row | Compound | Elastase Inhibition Rate(%)
23 | LELP (Tetra Peptide) [Sample 26, tetrapeptide] | 78.2%
24 | LEVP (Tetra Peptide) [Sample 31, tetrapeptide] | 70.6%
25 | MSYQ (Tetra Peptide) [Sample 1, tetrapeptide] | 79.4%
26 | PEEQ (Tetra Peptide) [Sample 32, tetrapeptide] | 64.0%
27 | PPVD (Tetra Peptide) [Sample 4, tetrapeptide] | 72.5%
28 | PTPQ (Tetra Peptide) [Sample 3, tetrapeptide] | 69.3%
29 | QKKQ (Tetra Peptide) [Sample 2, tetrapeptide] | 88.7%
30 | QLKY (Tetra Peptide) [Sample 35, tetrapeptide] | 60.5%
31 | QMGQ (Tetra Peptide) [Sample 33, tetrapeptide] | 55.6%
32 | QPSY (Tetra Peptide) [Sample 15, tetrapeptide] | 63.5%
33 | QQKQ (Tetra Peptide) [Sample 41, tetrapeptide] | 72.3%
34 | SGGS (Tetra Peptide) [Sample 8, tetrapeptide] | 49.6%
35 | SQQV (Tetra Peptide) [Sample 12, tetrapeptide] | 49.3%
36 | SSGG (Tetra Peptide) [Sample 17, tetrapeptide] | 77.0%
37 | TKGE (Tetra Peptide) [Sample 38, tetrapeptide] | 59.3%
38 | TQTS (Tetra Peptide) [Sample 13, tetrapeptide] | 59.0%
39 | VEHQ (Tetra Peptide) [Sample 40, tetrapeptide] | 55.7%
40 | VKTS (Tetra Peptide) [Sample 6, tetrapeptide] | 66.3%
41 | VLLP (Tetra Peptide) [Sample 39, tetrapeptide] | 60.7%
42 | YGGG (Tetra Peptide) [Sample 16, tetrapeptide] | 67.1%
43 | YLEQ (Tetra Peptide) [Sample 36, tetrapeptide] | 72.3%
